Experimental data taken from patent US20240228584A1 (FBD BIOLOGICS, published 2024).

B1: G4_TGFβRII (wt) (Fc fusion)
chain: IPPHVQKSVNNDMIVTDNNGAVKFPQLCKFCDVRFSTCDNQKSCMSNCSITSICEKPQEVCVAVWRKNDENITLETVCHDPKLPYHDFILEDAASPKCIMKEKKKPGETFFMCSCSSDECNDNIIFSEEYNTSNPD
notes: TGFβRII extracellular domain linked to an IgG4 Fc region; Fc is placed first here only because of the name G4_TGFβRII; also called wild-type G4_TGFβRII protein; not shown: Fc region of IgG4 (and any linker)
B2: human TGFβ3 (ligand, UniProt P10600 301-412, looked up)
chain: ALDTNYCFRNLEENCCVRPLYIDFRQDLGWKWVHEPKGYYANFCSGPCPYLRSADTTHSTVLGLYNTLNPEASASPCCVPQDLEPLTILYYVGRTPKVEQLSNMVVKSCKCS

What was measured:
human TGFβ1 [1] = biological target: T1, human TGFβ1 (human, UniProt P01137 279-390); experiment: cell-based or functional assay
human TGFβ3 [2] = biological target: B2; experiment: cell-based or functional assay
human TGFβ1 [3] = biological target: T1, human TGFβ1; experiment: ELISA (on rate), plate coated with 0.5 ug/ml human TGFβ1, 5 min incubation, OD450
Protocol: (§1) For on-rate binding ability, a 96-well EIA microplate was coated with 0.5 μg/ml human TGFβ (TGFβ1) overnight at 4° C. […] The unbound proteins were removed by washing the wells with 1×PBST (1×PBS containing 0.1% Tween 20) three times. A HRP-conjugated secondary antibody (1:5000) was added to the wells at RT for 1 hour. After the incubation, excess secondary antibodies were removed by washing the wells with 1×PBST three times. Finally, 3,3′,5,5′-Tetramethylbenzidine (TMB) was added for color development. The reaction was stopped and HRP activity was measured using a spectrophotometer at 450 nm.

human TGFβ1 [4] = biological target: T1, human TGFβ1; experiment: ELISA, plate coated with 0.5 ug/ml human TGFβ1, 1 h incubation, HRP secondary antibody, OD450
Protocol: as §1, with “A” for “For on-rate binding ability, a”, “ug/ml” for “μg/ml”, “(TGFβ1, TGFβ2, or TGFβ3)” for “(TGFβ1)”, “0.05%” for “0.1%”, “room temperature (RT)” for “RT”

human TGFβ3 [5] = biological target: B2; experiment: ELISA, plate coated with 0.5 ug/ml human TGFβ3, 1 h incubation, HRP secondary antibody, OD450
Protocol: as §1, with “A” for “For on-rate binding ability, a”, “ug/ml” for “μg/ml”, “(TGFβ1, TGFβ2, or TGFβ3)” for “(TGFβ1)”, “0.05%” for “0.1%”, “room temperature (RT)” for “RT”

human TGFβ1 [6] = biological target: T1, human TGFβ1; experiment: ELISA (off rate), plate coated with 0.5 ug/ml human TGFβ1, 1 h incubation, then 2 h wash on a shaker, OD450
Protocol: A HRP-conjugated secondary antibody (1:5000) was added to the wells at RT for 1 hour. After the incubation, excess secondary antibodies were removed by washing the wells with 1×PBST three times. Finally, 3,3′,5,5′-Tetramethylbenzidine (TMB) was added for color development. The reaction was stopped and HRP activity was measured using a spectrophotometer at 450 nm.

G4_TGFβRII (wt) = biological target: B1; experiment: ELISA, plate coated with 0.5 ug/ml human TGFβ3, 1 h incubation, HRP secondary antibody, OD450
Protocol: as §1, with “A” for “For on-rate binding ability, a”, “ug/ml” for “μg/ml”, “(TGFβ1, TGFβ2, or TGFβ3)” for “(TGFβ1)”, “0.05%” for “0.1%”, “room temperature (RT)” for “RT”

T1 sequence (P01137 279-390 limits assumed): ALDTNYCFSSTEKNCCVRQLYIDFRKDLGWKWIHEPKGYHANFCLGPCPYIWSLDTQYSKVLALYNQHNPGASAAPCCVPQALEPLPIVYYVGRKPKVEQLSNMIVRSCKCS

| Binder | IC50 (read off the curve) (human TGFβ1 [1]) [nM] | IC50 (read off the curve) (human TGFβ3 [2]) [nM] | EC50 (human TGFβ1 [3]) [nM] | EC50 (read off the curve) (human TGFβ1 [4]) [nM] | EC50 (read off the curve) (human TGFβ3 [5]) [nM] | EC50 (read off the curve) (human TGFβ1 [6]) [nM] | binding result (G4_TGFβRII (wt)) |
| --- | --- | --- | --- | --- | --- | --- | --- |
| B1 | ~1 | ~3 | 10.8 | ~6 | ~2 | ~4 | – |
| B2 | – | – | – | – | – | – | binds |
